From the RNAGym collection of RNA variant scans (doi:10.1093/nar/gkz1192)

B1: CPEB3 Ribozyme (parent)
chain: UAACAGGGGGCCACAGCAGAAGCGUUCACGUCGCAGCCCCUGUCAGAUUCUGGUGAAUCUGCGAAUUCUGCUGUAUAUCUC

Variants of: B1
Assay: self-cleavage, relative activity (ratio to wild type); higher = more cleavage; in vitro, sequencing
Summary of the method: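 Relative activity was defined as the cleaved/total read fraction for a variant divided by the same fraction for the unmutated ribozyme. CPEB3 self-cleaving ribozyme libraries were made by rounds of error-prone PCR, barcoded, and transcribed in vitro with T7 RNA polymerase for 5 hours at 37°C, and cleavage ran through transcription plus a 15 min DNase I step before EDTA. Illumina sequencing of template-switched reverse transcripts gave the reads, and DNA sequencing mapped the barcodes. Averages come from three batches, using variants with at least 5 reads.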

| Variant | self-cleavage |
| --- | --- |
| UAACAGGGGGCCACAGCAGAAGCGAUCACGUCGCAGCCCCUUUCAGAUUCUGGUGAAUCUGCGAAUUCUGCUGUAUAUCUC | 0.28 |
| UAACAGGGGGCCACAGCAGAAGCGAUCACGUCGCAGCCCCUAUCAGAUUCUGGUGAAUCUGCGAAUUCUGCUGUAUAUCUC | 0.2 |
| UAACAGGGGGCCACAGCAGAAGCGAUCACGUCGCAGCCCCUGUCAGACUCUGGUGAAUCUGCGAAUUCUGCUGUAUAUCUC | 0.3 |
| UAACAGGGGGCCACAGCAGAAGCGAUCACGUCGCAGCCCCUGUCAGAAUCUGGUGAAUCUGCGAAUUCUGCUGUAUAUCUC | 0.32 |
| UAACAGGGGGCCACAGCAGAAGCGAUCACGUCGCAGCCCCUGUCAGAUACUGGUGAAUCUGCGAAUUCUGCUGUAUAUCUC | 0.19 |
| UAACAGGGGGCCACAGCAGAAGCGAUCACGUCGCAGCCCCUGUCAGAUGCUGGUGAAUCUGCGAAUUCUGCUGUAUAUCUC | 0.19 |
| UAACAGGGGGCCACAGCAGAAGCGAUCACGUCGCAGCCCCUGUCAGAUCCUGGUGAAUCUGCGAAUUCUGCUGUAUAUCUC | 0.22 |
| UAACAGGGGGCCACAGCAGAAGCGAUCACGUCGCAGCCCCAGUCAGAUUCUGGUGAAUCUGCGAAUUCUGCUGUAUAUCUC | 0.44 |
| UAACAGGGGGCCACAGCAGAAGCGAUCACGUCGCAGCCCCGGUCAGAUUCUGGUGAAUCUGCGAAUUCUGCUGUAUAUCUC | 0.22 |
| UAACAGGGGGCCACAGCAGAAGCGAUCACGUCGCAGCCCCCGUCAGAUUCUGGUGAAUCUGCGAAUUCUGCUGUAUAUCUC | 0.28 |
| UAACAGGGGGCCACAGCAGAAGCGAUCACGUCGCAGCCCCUGUCAGAUUCUGGUGAAUCAGCGAAUUCUGCUGUAUAUCUC | 0.29 |
| UAACAGGGGGCCACAGCAGAAGCGAUCACGUCGCAGCCCCUGUCAGAUUCUGGUGAAUCCGCGAAUUCUGCUGUAUAUCUC | 0.21 |
| UAACAGGGGGCCACAGCAGAAGCGAUCACGUCGCAGCCCCUGUCAGAUUCUGGUGAAACUGCGAAUUCUGCUGUAUAUCUC | 0.27 |
| UAACAGGGGGCCACAGCAGAAGCGAUCACGUCGCAGCCCCUGUCAGAUUCUGGUGAAGCUGCGAAUUCUGCUGUAUAUCUC | 0.1 |
| UAACAGGGGGCCACAGCAGAAGCGAUCACGUCGCAGCCCCUGUCAGAUUCUGGUGAACCUGCGAAUUCUGCUGUAUAUCUC | 0.29 |
| UAACAGGGGGCCACAGCAGAAGCGACCACGUCGCAGCCCCUGUCAGAUUCUGGUGAAUCUGCGAAUUCUGCUGUAUAUCUC | 0.28 |
| UAACAGGGGGCCACAGCAGAAGCGAACACGUCGCAGCCCCUGUCAGAUUCUGGUGAAUCUGCGAAUUCUGCUGUAUAUCUC | 0.39 |
| UAACAGGGGGCCACAGCAGAAGCGAGCACGUCGCAGCCCCUGUCAGAUUCUGGUGAAUCUGCGAAUUCUGCUGUAUAUCUC | 0.29 |
| UAACAGGGGGCCACAGCAGAAGCGAUCACGUCGCAGUCCCUGUCAGAUUCUGGUGAAUCUGCGAAUUCUGCUGUAUAUCUC | 0.34 |
| UAACAGGGGGCCACAGCAGAAGCGAUCACGACGCAGCCCCUGUCAGAUUCUGGUGAAUCUGCGAAUUCUGCUGUAUAUCUC | 0.16 |
| UAACAGGGGGCCACAGCAGAAGCGAUCACGCCGCAGCCCCUGUCAGAUUCUGGUGAAUCUGCGAAUUCUGCUGUAUAUCUC | 0.17 |
| UAACAGGGGGCCACAGCAGAAGCGAUUACGUCGCAGCCCCUGUCAGAUUCUGGUGAAUCUGCGAAUUCUGCUGUAUAUCUC | 0.15 |
| UAACAGGGGGCCACAGCAGAAGCGAUCACGUCGCAGCCCCUGUCAGAUUCUGAUGAAUCUGCGAAUUCUGCUGUAUAUCUC | 0.28 |

| Variant | self-cleavage |
| --- | --- |
| UAACAGGGGGCCACAGCAGAAGCGAUCACGUCGCAGCCCCUGUCAGAUUCUGGUGAAUCUGCAAAUUCUGCUGUAUAUCUC | 0.28 |
| UAACAGGGGGCCACAGCAGAAGCGAUCACGUCGCAGCCCCUGUCAGAUUCUGGUGAAUCUGCUAAUUCUGCUGUAUAUCUC | 0.2 |
| UAACAGGGGGCCACAGCAGAAGCGAUCAGGUCGCAGCCCCUGUCAGAUUCUGGUGAAUCUGCGAAUUCUGCUGUAUAUCUC | 0.25 |
| UAACAGGGGGCCACAGCAGAAGCGAUCAUGUCGCAGCCCCUGUCAGAUUCUGGUGAAUCUGCGAAUUCUGCUGUAUAUCUC | 0.22 |
| UAACAGGGGGCCACAGCAGAAGCGAUCACGUCGCAGCCCCUGUCAGAUUCUGGUGAAUCUGCGAAUUCUGCUGUAUUUCUC | 0.23 |
| UAACAGGGGGCCACAGCAGAAGCGAUCACGUCGCAGCCCCUGUCAGAUUCUGGUGAAUCUGCGAAUUCUGCUGUAUCUCUC | 0.19 |
| UAACAGGGGGCCACAGCAGAAGCGAUCACGUCGCAGCCCCUGUCAGAUUCUGGUGAAUCUGCGAAUUCUGCUGUAUGUCUC | 0.18 |
| UAACAGGGGGCCACAGCAGAAGCGAUCACGUCGCAGCCCCUGUCAGAUUCUGGUGAAUCUGCGAAAUCUGCUGUAUAUCUC | 0.31 |
| UAACAGGGGGCCACAGCAGAAGCGAUCACGUCGCAGCCCCUGUCAGAUUCUGGUGAAUCUGCGAACUCUGCUGUAUAUCUC | 0.23 |
| UAACAGGGGGCCACAGCAGAAGCGAUCACGUCGCAGCCCCUGUCAGAUUCUGGUGAAUCUACGAAUUCUGCUGUAUAUCUC | 0.23 |
| UAACAGGGGGCCACAGCAGAAGCGAUCACGUCGCAGCCCCUGUCAGAUUCUGGUGAAUCUUCGAAUUCUGCUGUAUAUCUC | 0.18 |
| UAACAGGGGGCCACAGCAGAAGCGAUCACGUCGCAGCCCCUGUCAGAUUCUGGUGAAUCUGCGAAUACUGCUGUAUAUCUC | 0.46 |
| UAACAGGGGGCCACAGCAGAAGCGAUCACGUCGCAGCCCCUGUCAGAUUCUGGUGAAUCUGCGAAUUCUGCUGUAUAUUUC | 0.27 |
| UAACAGGGGGCCACAGCAGAAGCGAUCACGUCGCAGCCCCUGUCAGAUUCUAGUGAAUCUGCGAAUUCUGCUGUAUAUCUC | 0.22 |
| UAACAGGGGGCCACAGCAGAAGCGAUCACGUCGCAGCCCCUGUCAGAUUCUCGUGAAUCUGCGAAUUCUGCUGUAUAUCUC | 0.27 |
| UAACAGGGGGCCACAGCAGAAGCGAUCACGUCGCAGCCCCUGACAGAUUCUGGUGAAUCUGCGAAUUCUGCUGUAUAUCUC | 0.21 |
| UAACAGGGGGCCACAGCAGAAGCGAUCACGUCGCAGCCCCUGCCAGAUUCUGGUGAAUCUGCGAAUUCUGCUGUAUAUCUC | 0.28 |
| UAACAGGGGGCCACAGCAGAAGCGAUCACGUCGCAGCCCCUGUCAGAUUCUGGUGAAUUUGCGAAUUCUGCUGUAUAUCUC | 0.09 |
| UAACAGGGGGCCACAGCAGAAGCGAUCACGUCGCAGCCCCUGUCAGAUUCUGGUGAAUCUGCGAAUUCUUCUGUAUAUCUC | 0.06 |
| UAACAGGGGGCCACAGCAGAAGCGAUCACGUCGCAGCCCCUGUCAGAUUCUGGUGAAUCUGCGAAUUCUCCUGUAUAUCUC | 0.07 |
| UAACAGGGGGCCACAGCAGAAGCGAUCACGUCGCAGCCCCUGUCAGAUUCUGGUGAAUCUGCGAAUUAUGCUGUAUAUCUC | 0.19 |
| UAACAGGGGGCCACAGCAGAAGCGAUCACGUCGCAGCCCCUGUCAGAUUCUGGAGAAUCUGCGAAUUCUGCUGUAUAUCUC | 0.26 |
| UAACAGGGGGCCACAGCAGAAGCGAUCACGUCGCAGCCCCUGUCAGAUUCUGGCGAAUCUGCGAAUUCUGCUGUAUAUCUC | 0.27 |

| Variant | self-cleavage |
| --- | --- |
| UAACAGGGGGCCACAGCAGAAGCGAUCACGUCGCAGCCCCUGUCAGAUUCUGGGGAAUCUGCGAAUUCUGCUGUAUAUCUC | 0.2 |
| UAACAGGGGGCCACAGCAGAAGCGAUCACGUCGCAGCCCCUGUAAGAUUCUGGUGAAUCUGCGAAUUCUGCUGUAUAUCUC | 0.17 |
| UAACAGGGGGCCACAGCAGAAGCGAUCACGUCGUAGCCCCUGUCAGAUUCUGGUGAAUCUGCGAAUUCUGCUGUAUAUCUC | 0.56 |
| UAACAGGGGGCCACAGCAGAAGCGAUCACGUCGAAGCCCCUGUCAGAUUCUGGUGAAUCUGCGAAUUCUGCUGUAUAUCUC | 0.4 |
| UAACAGGGGGCCACAGCAGAAGCGAUCACGUCGCAGCCCCUGUCAGAUUCAGGUGAAUCUGCGAAUUCUGCUGUAUAUCUC | 0.33 |
| UAACAGGGGGCCACAGCAGAAGCGAUCACGUCGCAGCCCCUGUCAGAUUCCGGUGAAUCUGCGAAUUCUGCUGUAUAUCUC | 0.23 |
| UAACAGGGGGCCACAGCAGAAGCGAUCACGUCGCAGCCCCUGUCAAAUUCUGGUGAAUCUGCGAAUUCUGCUGUAUAUCUC | 0.15 |
| UAACAGGGGGCCACAGCAGAAGCGAUCACGUCGCAGCCCCUGUCAGAUUAUGGUGAAUCUGCGAAUUCUGCUGUAUAUCUC | 0.41 |
| UAACAGGGGGCCACAGCAGAAGCGAUCACGUCCCAGCCCCUGUCAGAUUCUGGUGAAUCUGCGAAUUCUGCUGUAUAUCUC | 0.19 |
| UAACAGGGGGCCACAGCAGAAGCGAUCACGUCGCAGCUCCUGUCAGAUUCUGGUGAAUCUGCGAAUUCUGCUGUAUAUCUC | 0.23 |
| UAACAGGGGGCCACAGCAGAAGCGAUCACGUCGCAGCACCUGUCAGAUUCUGGUGAAUCUGCGAAUUCUGCUGUAUAUCUC | 0.18 |
| UAACAGGGGGCCACAGCAGAAGCGAUCACGUCGCAGCCCCUGUCAGAUUCUGGUGAAUCUGCGAAUUCUGCUGUUUAUCUC | 0.32 |
| UAACAGGGGGCCACAGCAGAAGCGAUCACAUCGCAGCCCCUGUCAGAUUCUGGUGAAUCUGCGAAUUCUGCUGUAUAUCUC | 0.13 |
| UAACAGGGGGCCACAGCAGAAGCGAUCACCUCGCAGCCCCUGUCAGAUUCUGGUGAAUCUGCGAAUUCUGCUGUAUAUCUC | 0.26 |
| UAACAGGGGGCCACAGCAGAAGCGAUCACGUCGCAGCCCCUGUCAGAUUCUGGUGAAUCUGCGAAUUCUGCUAUAUAUCUC | 0.36 |
| UAACAGGGGGCCACAGCAGAAGCGAUCACGUCGCAGCCCAUGUCAGAUUCUGGUGAAUCUGCGAAUUCUGCUGUAUAUCUC | 0.22 |
| UAACAGGGGGCCACAGCAGAAGCGAUCACGUUGCAGCCCCUGUCAGAUUCUGGUGAAUCUGCGAAUUCUGCUGUAUAUCUC | 0.38 |
| UAACAGGGGGCCACAGCAGAAGCGAUCACGUAGCAGCCCCUGUCAGAUUCUGGUGAAUCUGCGAAUUCUGCUGUAUAUCUC | 0.16 |
| UAACAGGGGGCCACAGCAGAAGCGAUCACGUCGCAGCCCCUGUCAGAUUCUGGUGAAUCUGCGAAUUCUGCUGUAUAUCUU | 0.57 |
| UAACAGGGGGCCACAGCAGAAGCGAUCACGUCGCAGCCCCUGUCAGAUUCUGGUGAAUCUGGGAAUUCUGCUGUAUAUCUC | 0.39 |
| UAACAGGGGGCCACAGCAGAAGCGAUCACGUCGCAGCCCCUGUCAGAUUCUGGUGAAUCUGUGAAUUCUGCUGUAUAUCUC | 0.19 |
| UAACAGGGGGCCACAGCAGAAGCGAUCACGUCGCAGCCCCUGUCAGAUUCUGGUGAAUCUGAGAAUUCUGCUGUAUAUCUC | 0.16 |
